B1: Murine IL-10 (ligand)
chain: SRGQYSREDNNCTHFPVGQSHMLLELRTAFSQVKTFFQTKDQLDNILLTDSLMQDFKGYLGCQALSEMIQFYLVEVMPQAEKHGPEIKEHLNSLGEKLKTLRMRLRRCHRFLPCENKSKAVEQVKSDFNKLQDQGVYKAMNEFDIFINCIEAYMMIKMKS
B2: PEG-mIL-10 (ligand)
chain: B1 chain
modifications: pegylated; prepared with the SC-PEG-12K linker; attachment residue not stated

How the values were obtained:
[1] = molecular target: T1, mIL-10 receptors (R1 and R2) (mouse, UniProt Q61727); experiment: cell-based or functional assay
T1 sequence 1: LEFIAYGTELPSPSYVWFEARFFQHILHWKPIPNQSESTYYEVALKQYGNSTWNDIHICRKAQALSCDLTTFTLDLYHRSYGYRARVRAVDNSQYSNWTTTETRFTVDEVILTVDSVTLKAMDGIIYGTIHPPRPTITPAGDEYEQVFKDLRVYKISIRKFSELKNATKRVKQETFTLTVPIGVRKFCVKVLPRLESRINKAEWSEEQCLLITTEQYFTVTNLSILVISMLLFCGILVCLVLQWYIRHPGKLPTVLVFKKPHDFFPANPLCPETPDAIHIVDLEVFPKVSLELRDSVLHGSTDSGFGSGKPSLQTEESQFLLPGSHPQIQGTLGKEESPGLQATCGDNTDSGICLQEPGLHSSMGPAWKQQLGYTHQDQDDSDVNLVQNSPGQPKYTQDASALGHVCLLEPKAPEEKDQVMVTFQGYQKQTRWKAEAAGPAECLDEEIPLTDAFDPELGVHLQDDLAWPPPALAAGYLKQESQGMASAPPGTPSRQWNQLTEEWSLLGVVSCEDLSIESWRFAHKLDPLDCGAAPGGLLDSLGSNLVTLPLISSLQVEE
T1 sequence 2: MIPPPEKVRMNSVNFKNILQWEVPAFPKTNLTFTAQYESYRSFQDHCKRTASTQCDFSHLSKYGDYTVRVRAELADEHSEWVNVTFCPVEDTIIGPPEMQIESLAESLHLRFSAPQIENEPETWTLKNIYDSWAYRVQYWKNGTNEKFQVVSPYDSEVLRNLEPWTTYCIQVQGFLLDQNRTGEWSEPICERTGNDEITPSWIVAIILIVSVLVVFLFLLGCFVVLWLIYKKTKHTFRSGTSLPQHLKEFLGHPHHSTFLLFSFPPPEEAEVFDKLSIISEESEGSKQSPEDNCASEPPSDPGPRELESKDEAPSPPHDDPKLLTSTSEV

[2] = molecular target: T1, mIL-10 receptors (R1 and R2); experiment: cell-based or functional assay; remark: listed apart in the source

| Binder | EC50 (ng/mL) in MC/9 Assay [1] [ng/mL] | MC/9 proliferation (Alamar Blue), specific activity [2] [fold] |
| --- | --- | --- |
| B1 | 0.571 |  |
| B2 | 4.04 | ~7 |

Reference: patent publication US20180250364A1, “Methods of Using Interleukin-10 for Treating Diseases and Disorders” (published 2018)
